In this series the target is T1, caspase-3 substrate CGKRKGDEVDSG
T1 chain: CGKRKGDEVDSG

The record followed here is patent publication US20210325403.

B1: caspase-3 (protein)
chain: SGISLDNSYKMDYPEMGLCIIINNKNFHKSTGMTSRSGTDVDAANLRETFRNLKYEVRNKNDLTREEIVELMRDVSKEDHSKRSSFVCVLLSHGEEGIIFGTNGPVDLKKITNFFRGDRCRSLTGKPKLFIIQACRGTELDCGIETDSGVDDDMACHKIPVEADFLYAYSTAPGYYSWRNSKDGSWFIQSLCAMLKQYADKLEFMHILTRVNRKVATEFESFSFDATFHAKKQIPCIVSMLTKELYFYH
Regarding B1, the “cleavage of the immobilised substrate, read by SAMDI mass spectrometry” value is listed as “we also observed a peak corresponding to the caspase-3 product at 144 Da lower than the initial substrate mass”.
